Measurements published in US20110166208.

Test system: bacterially-expressed calmodulin (non-methylated)

Xenopus laevis calmodulin protein methyltransferase, sequence (chain, as listed by the source): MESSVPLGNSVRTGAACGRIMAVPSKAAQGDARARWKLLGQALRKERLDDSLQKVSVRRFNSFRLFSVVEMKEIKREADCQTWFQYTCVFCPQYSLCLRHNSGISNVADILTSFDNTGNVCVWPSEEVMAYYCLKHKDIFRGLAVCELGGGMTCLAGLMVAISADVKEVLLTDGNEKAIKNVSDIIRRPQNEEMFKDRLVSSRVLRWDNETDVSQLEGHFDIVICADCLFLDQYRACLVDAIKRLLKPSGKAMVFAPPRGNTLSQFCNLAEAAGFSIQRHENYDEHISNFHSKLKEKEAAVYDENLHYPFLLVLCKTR

Substance | incorporation of radiolabel from [3H-methyl]AdoMet into calmodulin (phosphorimage) | methyltransferase activity (in vitro) | specific activity | catalytic activity
Rattus norvegicus calmodulin protein methyltransferase | the radiolabel from [^3H-methyl]AdoMet was incorporated into calmodulin, in the presence of the recombinant calmodulin methyltransferases obtained from SEQ ID NO: 1, 2, and 3 | Each of the proteins exhibited robust methyltransferase activity (in vitro) toward non-methylated forms of calmodulin | 56 nmoles min^-1 mg protein^-1 | 
Tribolium casteaneum calmodulin protein methyltransferase |  | Each of the proteins exhibited robust methyltransferase activity (in vitro) toward non-methylated forms of calmodulin |  | 
Homo sapiens calmodulin protein methyltransferase, initially expressed clone with V209F (cDNA Accession BC 053733) |  |  |  | the initially expressed form of Hscalmodulin PKMT was catalytically inactive
Homo sapiens calmodulin protein methyltransferase (valine at 209, catalytically active form) | the radiolabel from [^3H-methyl]AdoMet was incorporated into calmodulin, in the presence of the recombinant calmodulin methyltransferases obtained from SEQ ID NO: 1, 2, and 3 | Each of the proteins exhibited robust methyltransferase activity (in vitro) toward non-methylated forms of calmodulin |  | alteration of the sequence of the clone to correspond to the gene-predicted valine restored catalytic activity to amounts similar to those observed for other cloned calmodulin KMTs
Arabidopsis thaliana calmodulin protein methyltransferase |  | Each of the proteins exhibited robust methyltransferase activity (in vitro) toward non-methylated forms of calmodulin |  | 
Xenopus laevis calmodulin protein methyltransferase | the radiolabel from [^3H-methyl]AdoMet was incorporated into calmodulin, in the presence of the recombinant calmodulin methyltransferases obtained from SEQ ID NO: 1, 2, and 3 | Each of the proteins exhibited robust methyltransferase activity (in vitro) toward non-methylated forms of calmodulin |  | 
